From patent US20130059772A1, “Use of Repeat Sequence Protein Polymers in Personal Care Compositions” (DANISCO US INC., priority 2003, published 2013) come the findings set out here.

This data set concerns Fibroblasts (HDFn Cell Line). Put plainly: MTT assay (second cell viability assay). The note with it: 48 hours. Background: Tetrazolium dyes change colour on reduction, which living cells bring about.

From the text: The purple crystals are extracted from the cells with isopropanol and the amount of crystal formation quantified spectrophotometrically. The intensity of the purple color is directly proportional to the metabolic activity of the cultured cells, which normally is used as an indication of an increase in the number of viable cells, although it can also indicate an increase in the mitochondrial content of the existing cells (Alley et al., Cancer Res., 48:589-601 1988). A decrease in color intensity can be a sign of toxicity.
Fibroblasts (Cascade Biologics, HDFn Cell Line, lot#1C0914) were seeded into the individual wells of either a 96-well plate (for the initial pilot work to determine concentration effects on cell viability) in 100 μl of Fibroblast Growth Media (FGM) or in 12-well plates (for the measurement of collagen, elastin and MMP-1) in 1.0 ml of FGM and incubated overnight at 37±2° C. and 5±1% CO2. On the following day, the medium was removed via aspiration to eliminate any non-adherent cells and replaced with fresh FGM. The cells were grown until confluent, with a media change every 48 to 72 hours. Upon reaching confluency, the cells were treated for 24 hours with Dulbecco's Modified Essential Media (DMEM) supplemented with 1.5% FBS to wash out any effects from the growth factors included in the normal FGM. After this 24-hour wash out period, the cells were treated with the test materials at the specified concentrations dissolved in DMEM with 1.5% FBS. […]
After the 2-day incubation, the cell culture medium was removed and the fibroblasts were washed twice with PBS to remove any remaining test material. […] The 96-well plates were read at 540 nm using isopropyl alcohol as a blank. The mean MTT absorbance value for the negative control cells was calculated and used to represent 100% value for cell viability. The individual MTT values from the cells undergoing the various treatments were then divided by the mean value for the negative control cells and expressed as a percent, to determine the change in cell viability caused by each treatment.

B1: GC2596-26-D: SELP47K modified with two units of ALSYP (SEQ ID NO:36) peptides in each SELP47K unit; SEQ ID NO:32 (Example 4) (protein)
chain: MDPVVLQRRDWENPGVTQLNRLAAHPPFASDPMGAGAGSGAGAGSALSYPGVGVPGVGVPGVGVPGVGVPGKGVPGVGVPGVGVPGVGVPALSYPGAGAGSGAGAGSGAGAGSGAGAGSALSYPGVGVPGVGVPGVGVPGVGVPGKGVPGVGVPGVGVPGVGVPALSYPGAGAGSGAGAGSGAGAGSGAGAGSALSYPGVGVPGVGVPGVGVPGVGVPGKGVPGVGVPGVGVPGVGVPALSYPGAGAGSGAGAGSGAGAGSGAGAGSALSYPGVGVPGVGVPGVGVPGVGVPGKGVPGVGVPGVGVPGVGVPALSYPGAGAGSGAGAGSGAGAGSGAGAGSALSYPGVGVPGVGVPGVGVPGVGVPGKGVPGVGVPGVGVPGVGVPALSYPGAGAGSGAGAGSGAGAGSGAGAGSALSYPGVGVPGVGVPGVGVPGVGVPGKGVPGVGVPGVGVPGVGVPALSYPGAGAGSGAGAGSGAGAGSGAGAGSALSYPGVGVPGVGVPGVGVPGVGVPGKGVPGVGVPGVGVPGVGVPALSYPGAGAGSGAGAGSGAGAGSGAGAGSALSYPGVGVPGVGVPGVGVPGVGVPGKGVPGVGVPGVGVPGVGVPALSYPGAGAGSGAGAGSGAGAGSGAGAGSALSYPGVGVPGVGVPGVGVPGVGVPGKGVPGVGVPGVGVPGVGVPALSYPGAGAGSGAGAGSGAGAGSGAGAGSALSYPGVGVPGVGVPGVGVPGVGVPGKGVPGVGVPGVGVPGVGVPALSYPGAGAGSGAGAGSGAGAGSGAGAGSALSYPGVGVPGVGVPGVGVPGVGVPGKGVPGVGVPGVGVPGVGVPALSYPGAGAGSGAGAGSGAGAGSGAGAGSALSYPGVGVPGVGVPGVGVPGVGVPGKGVPGVGVPGVGVPGVGVPALSYPGAGAGSGAGAGSGAGAGSGAGAGSALSYPGVGVPGVGVPGVGVPGVGVPGKGVPGVGVPGVGVPGVGVPALSYPGAGAGSGAGAGSGAGAMDPGRYQDLRSHHHHHH
modifications: SELP 47K-P4
In the case of B1, the “Percent Viability” value (0.0014%) was found to be 100 ± 3%, the “Percent Viability” value (0.007%) came out at 103 ± 2% and the “Percent Viability” value (0.014%) was determined as 106 ± 5%.
